The assay concerns the target purified recombinant Hsp70 (UniProt P0DMV8 1-641).

Sequence of purified recombinant Hsp70 (P0DMV8 whole entry): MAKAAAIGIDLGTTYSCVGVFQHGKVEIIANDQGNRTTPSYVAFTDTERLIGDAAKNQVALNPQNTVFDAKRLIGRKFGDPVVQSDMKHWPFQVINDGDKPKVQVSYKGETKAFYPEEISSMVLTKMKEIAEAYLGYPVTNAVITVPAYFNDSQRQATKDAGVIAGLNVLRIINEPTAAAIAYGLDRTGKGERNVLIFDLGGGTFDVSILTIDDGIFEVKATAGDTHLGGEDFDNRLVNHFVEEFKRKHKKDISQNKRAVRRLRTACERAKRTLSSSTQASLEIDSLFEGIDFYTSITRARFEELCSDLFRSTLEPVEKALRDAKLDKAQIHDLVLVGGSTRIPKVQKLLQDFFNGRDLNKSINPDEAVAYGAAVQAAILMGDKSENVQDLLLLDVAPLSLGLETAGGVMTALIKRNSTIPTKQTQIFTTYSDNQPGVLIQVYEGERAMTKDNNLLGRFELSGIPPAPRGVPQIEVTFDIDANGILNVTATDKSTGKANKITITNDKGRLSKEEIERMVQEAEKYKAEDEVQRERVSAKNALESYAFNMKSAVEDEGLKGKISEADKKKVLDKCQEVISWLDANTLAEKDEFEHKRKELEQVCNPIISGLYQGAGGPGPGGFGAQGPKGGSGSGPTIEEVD

B1: recombinant normal PABPN1 (wt-PABPN1) from E. coli (natural protein)
chain: MAAAAAAAAAAGAAGGRGSGPGRRRHLVPGAGGEAGEGAPGGAGDYGNGLESEELEPEELLLEPEPEPEPEEEPPRPRAPPGAPGPGPGSGAPGSQEEEEEPGLVEGDPGDGAIEDPELEAIKARVREMEEEAEKLKELQNEVEKQMNMSPPPGNAGPVIMSIEEKMEADARSIYVGNVDYGATAEELEAHFHGCGSVNRVTILCDKFSGHPKGFAYIEFSDKESVRTSLALDESLFRGRQIKVIPKRTNRPGISTTDRGFPRARYRARTTNYNSSRSRFYSGFNSRPRGRVYRGRARATSWYSPY
Take B1: the Kd came to 14 µM.

Values taken from article PMC2712759 (2009).
